Laboratory results as given in patent US8119594B1, “Method of modulating integrin mediated cellular activity and agents useful for same” (Inter-K Pty Limited, priority 1999, dated 2012).
Where a SMILES comes first, the peptide text is derived from it. Where no end group is shown, it is not given here. The star is where a group is joined. Biotin = O=C1N[C@H]2[C@H](CS[C@H]2CCCCC(=O)*)N1

How the values were obtained:
[1] = test system: gelatinase B secretion by SW480 β6 transfectants; assay: Gelatinase B secretion by gelatin zymogram; type: cell-based, human; settings: 40 μM; 48 hours; serum-free; compared with controls
Protocol: SW480 β6 transfectants were cultured under serum-free conditions for 48 hours in the absence/presence of the MEK inhibitor PD98059 (40 μM) or DMSO (vehicle control). Tumour-conditioned medium was assayed for gelatinase B by analysis of equal protein loads in a gelatin zymogram.

[2] = test system: p42/p44 MAP kinase activity in HT29 cells; assay: MAP kinase assay in HT29 cells after serum stimulation; type: cell-based, human; settings: HT29 wild-type; inhibitor 40 μM added one hour before serum
Protocol: (§1) Cultures of WiDr and HT29 mock and antisense β6 transfectants were established by seeding 1×10^6 cells/5 ml of culture medium in 25 cm^2 tissue culture flasks. Cells were incubated at 37° C. in humidified CO2 for 24 hours before serum starvation in serum-free medium for the next 16 hours. Foetal calf serum was then added to a final concentration of 10% for 30 mins before MAP kinase assays were performed. […] The ability of cells to transfer phosphate from [γ^32P]-ATP to a synthetic peptide that contains specifically a p42/p44 MAP kinase phosphorylation site was measured as described in the manufacturer's instructions. [^32P]-labelled peptides were spotted onto PE1-cellulose paper, unbound radioactivity was washed with 75 mM phosphoric acid and bound [^32P]-labelled peptides were measured by liquid scintillation counting. Protein estimation was performed on each cell lysate used and enzyme activity calculated as described in the manufacturer's instructions. […]
(§2) The effect of MEK (MAP kinase kinase) inhibitors U0126 and PD98059 on MAP kinase activity in WiDr and HT29 wild-type cells was tested in the absence/presence of serum. […] Serum was then added for 30 min and MAP kinase activity assessed before and after addition of serum. […]

[3] = test system: p42/p44 MAP kinase activity in WiDr cells; assay: MAP kinase assay in WiDr cells after serum stimulation; type: cell-based, human; settings: WiDr wild-type; inhibitor 40 μM added one hour before serum
Protocol: as §1, §2

[4] = test system: SW480 β6-expressing colon cancer cells; settings: for inhibition of cell proliferation (WST-1): SW480 β6-expressing, 30 μm, 24 hours, serum-free medium, FIG. 29
Protocol: HT29 and SW480 β6-expressing colon cancer cell lines were seeded into wells of 96-well microtitre plates (Nunclon) in Dulbecco's Modified Eagle's Medium (DMEM) supplemented with 10% foetal bovine serum, glutamine, Hepes, and antibiotics. Seeding cell densities were 3×10^3 cells per triplicate well for each condition tested and after 24 hours incubation of cell cultures in 5% CO2, 100% humidity at 37° C., the culture medium was exchanged for serum-free DMEM medium supplemented with insulin, transferrin, selenous acid, hydrocortisone, non-essential amino acids, glutamine, Hepes and antibiotics containing either peptide [sequence] (SEQ ID NO. 2) alone or penetratin-peptide complex at a concentration of 10 μm for HT29 cells or 30 μm for SW480 β6-expressing cells. Cell cultures were incubated for a further 24 hours following which cultures were photographed (Kodak Techpan Film at 100 ASA setting) and the experiments terminated by addition of the cell proliferation reagent WST-1 (Boehringer Mannheim) to monitor effects of the peptide on cell growth.
SW480 mock and SW480 β6 transfectants were cultured in DMEM medium supplemented with 1% foetal bovine serum in the presence of 20 μM seq. […] Percentage inhibition was assessed by the WST-1 colorimetric dehydrogenase assay described in Example 6.
Growth inhibition of SW480 cells expressing full length wild-type β6 exposed to seq.4 coupled to penetratin or [sequence] (SEQ ID NO. 2) peptide coupled to penetratin (5, 10, 20, 30 μM in DMEM minus foetal bovine serum) but which peptide contained alanine substitutions at the four positions indicated was assessed.

HT29 colon cancer cells = assay: WST-1 cell proliferation assay in HT29 cells; type: cell-based, human; settings: 10 μm, 24 hours, serum-free medium, FIG. 28
Protocol: HT29 and SW480 β6-expressing colon cancer cell lines were seeded into wells of 96-well microtitre plates (Nunclon) in Dulbecco's Modified Eagle's Medium (DMEM) supplemented with 10% foetal bovine serum, glutamine, Hepes, and antibiotics. […] The cell proliferation reagent WST-1 is designed to be used for the non-radioactive, spectrophotometric quantification of cell growth and viability in proliferation and chemosensitivity assays. […]
In particular, at the termination of experiments, 30 μl of WST-1 was added to 270 μl culture medium volume in each microtitre well and the colour change quantitated in an ELISA plate reader by measuring absorbance of the formazan product at 450 nm (using a reference wavelength of more than 600 nm). The mean absorbance readings from triplicate wells (±standard error of the means) after subtraction of background control wells (culture medium without cells) was determined.

ERK2 = target: T1, ERK2 (Mus musculus, UniProt P63085); assay: ELISA binding of ERK2 to biotinylated integrin cytoplasmic domain peptides; settings: for binding of ERK2 to integrin β subunit cytoplasmic domain peptides: corrected for non-specific binding, FIG. 34; for binding of ERK2 (thrombin cleaved): ERK2 cleaved from GST-ERK2 by thrombin, compared to seq. 4, FIG. 23; for binding of GST.ERK2 to shorter test peptides: range of peptide concentrations, seq. 4 compared to fragment 2, seq. 3 compared to seq. 4, FIG. 20; for binding of non-phosphorylated ERK2: over a range of concentrations of ERK2, compared to fragments 1, 3 and 4, FIG. 18
T1 construct: made in house
T1 sequence (P63085 whole entry, the tested form may be a part): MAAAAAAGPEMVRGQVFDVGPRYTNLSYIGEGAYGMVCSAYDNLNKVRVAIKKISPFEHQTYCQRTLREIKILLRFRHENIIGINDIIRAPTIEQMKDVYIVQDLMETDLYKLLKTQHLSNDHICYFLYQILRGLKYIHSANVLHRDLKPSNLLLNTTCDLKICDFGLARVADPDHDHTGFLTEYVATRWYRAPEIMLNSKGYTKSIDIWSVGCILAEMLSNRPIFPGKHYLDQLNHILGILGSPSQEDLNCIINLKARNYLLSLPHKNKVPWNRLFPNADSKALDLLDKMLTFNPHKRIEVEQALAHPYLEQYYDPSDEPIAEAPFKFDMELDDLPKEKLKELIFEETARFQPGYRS
Protocol: Peptide fragments corresponding to regions of the cytoplasmic tail domain of the β6 subunit were screened in an enzyme-linked immunosorbent assay (ELISA) for binding with ERK2. The […] β6 cytoplasmic tail is shown in FIG. 16 as are the amino acid sequences for the cytoplasmic domains of the β1 to β3 subunits. In particular, four synthetic peptides designated fragment 1 to fragment 4 were prepared and biotinylated at the N-terminal end of each, respectively (Auspep Pty Ltd, Melbourne Australia).
(§3) Overlapping biotinylated fragments 1 to 4 were coated onto streptavidin coated polystyrene plates (Pierce, Rockford Ill. USA, Cat No. 15125) and the ELISA performed substantially according to manufacturers instructions. Briefly, wells are washed with 3×200 μl of wash buffer (TBS, 0.1% BSA, 0.05% Tween 20 or SuperBlock™ blocking buffer in TBS, Pierce, Prod. No. 37535) prior to addition of biotinylated peptides (100 μl) and incubation for 1 hr at room temperature to allow for capture of the peptides on the plate. Following another washing step, peptides were overlayed with GST-ERK, ERK (or JNK-1) alone at a volume of 100 μl per well, and the plates incubated for a further 1 hr at room temperature before removal of any unbound ERK by further washing.
Binding of ERK to the peptides is detected using 100 μl anti-ERK1/2 mAb SC1647 (Santa Cruz) as the primary antibody at a dilution of 1:700 (isotype matched antibody IgG2b is used as a control). This is followed by another washing step and addition of 100 μl rabbit anti-mouse antibody (Biorad) conjugated to alkaline phosphatase at a concentration of 1:1000 for 30 minutes again at room temperature. A 100 μl aliquot of detection reagent (alkaline phosphatase detection kit-Biorad) is then introduced into each well after a final washing step and allowed to react for 15-30 minutes at room temperature in the dark before absorbance is measured at 405 nm. All dilutions of peptides, MAP kinase and antibodies were performed using the wash buffer. GST-ERK is a fusion protein consisting of ERK coupled to glutathione-S-transferase and purified from host cells transfected with pGEX vector.

JNK-1 = target: T2, JNK-1 (Homo sapiens, UniProt P45983); assay: ELISA binding of JNK-1 to β6 cytoplasmic tail peptide; settings: JNK-1 0.05-1.5 μm/100 μl; increasing peptide concentrations; FIG. 24
T2 construct: purchased Santa Cruz
T2 sequence (P45983 whole entry, species assumed): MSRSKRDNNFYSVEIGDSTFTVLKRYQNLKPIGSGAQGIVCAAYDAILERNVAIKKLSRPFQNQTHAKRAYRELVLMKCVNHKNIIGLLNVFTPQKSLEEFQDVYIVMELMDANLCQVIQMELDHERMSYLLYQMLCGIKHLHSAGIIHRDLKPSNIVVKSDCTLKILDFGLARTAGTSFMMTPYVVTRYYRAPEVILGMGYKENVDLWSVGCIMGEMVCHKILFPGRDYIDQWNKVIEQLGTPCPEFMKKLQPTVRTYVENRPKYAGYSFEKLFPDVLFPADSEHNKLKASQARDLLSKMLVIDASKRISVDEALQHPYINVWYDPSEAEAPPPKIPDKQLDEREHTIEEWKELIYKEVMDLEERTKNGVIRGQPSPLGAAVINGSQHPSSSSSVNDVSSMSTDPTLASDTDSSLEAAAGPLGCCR
Protocol: as §3
Briefly, 0.05-1.5 μm/100 μl of JNK-1 (Santa Cruz) was aliquoted into wells of a 96 well culture place containing increasing concentrations of the β6 cytoplasmic domain tail peptide used in Example 3. For comparison purposes, non-phosphorylated GST-ERK2 (0.05-1.5 μm/100 μl) was aliquoted into wells containing β6 cytoplasmic tail peptide or peptide fragments 1 or 2, respectively. Binding of JNK-1 was detected using mouse anti-JNK-1 mAb SC 474-G (Santa Cruz) and HRP-conjugated goat anti-mouse antibody.

COc1cccc(-c2cc(=O)c3ccccc3o2)c1N [PD98059]
gelatinase B secretion [1]: reduced gelatinase B secretion
serum-stimulated MAP kinase activity [2]: inhibitable
serum-stimulated MAP kinase activity [3]: inhibitable

N#CC(=C(/N)Sc1ccccc1N)/C(C#N)=C(\N)Sc1ccccc1N [U0126]
serum-stimulated MAP kinase activity [2]: inhibitable
serum-stimulated MAP kinase activity [3]: inhibitable

CC[C@H](C)[C@H](NC(=O)[C@H](CCCCN)NC(=O)[C@@H](NC(=O)[C@H](CCC(N)=O)NC(=O)[C@@H](N)CCCNC(=N)N)[C@@H](C)CC)C(=O)N[C@@H](Cc1c[nH]c2ccccc12)C(=O)N[C@@H](Cc1ccccc1)C(=O)N[C@@H](CCC(N)=O)C(=O)N[C@@H](CC(N)=O)C(=O)N[C@@H](CCCNC(=N)N)C(=O)N[C@@H](CCCNC(=N)N)C(=O)N[C@@H](CCSC)C(=O)N[C@@H](CCCCN)C(=O)N[C@@H](Cc1c[nH]c2ccccc12)C(=O)N[C@@H](CCCCN)C(=O)N[C@@H](CCCCN)C(=O)N[C@@H](CCCNC(=N)N)C(=O)N[C@@H](CO)C(=O)N[C@@H](CCCCN)C(=O)N[C@@H](C)C(=O)N[C@@H](CCCCN)C(=O)N[C@@H](Cc1c[nH]c2ccccc12)C(=O)N[C@@H](CCC(N)=O)C(=O)N[C@H](C(=O)NCC(=O)N[C@H](C(=O)N[C@@H](CC(N)=O)C(=O)N1CCC[C@H]1C(=O)N[C@@H](CC(C)C)C(=O)N[C@@H](Cc1ccc(O)cc1)C(=O)N[C@@H](CCCNC(=N)N)C(=O)O)[C@@H](C)O)[C@@H](C)O [penetratin-peptide complex] (H-RQIKIWFQNRRMKWKKRSKAKWQTGTNPLYR-OH; N-terminus and C-terminus assumed)
growth inhibition, dose response ([4]; SW480 full length wild-type β6, 5, 10, 20, 30 μM in DMEM minus foetal bovine serum, FIG. 33): progressive inhibition of proliferation in a dose-response manner
inhibition of cell proliferation (WST-1) [4]: effective in inhibiting cell proliferation
inhibition of cell proliferation (WST-1) (HT29 colon cancer cells): effective in inhibiting cell proliferation

RARAKWDTANNPLYK (HOMO SAPIENS) [β3, peptide corresponding to a region of the β3 cytoplasmic domain]
binding of ERK2 to integrin β subunit cytoplasmic domain peptides (ERK2): also found

RSKAK (HOMO SAPIENS) [5 mer peptide]
binding of ERK2 (thrombin cleaved) (ERK2): Negligible binding

RSKAKNPLYR (HOMO SAPIENS) [10(4), 4 is omitted]
binding of ERK2 (thrombin cleaved) (ERK2): Comparable binding

RSKAKWQTGT (HOMO SAPIENS) [seq. 3, 10 mer test peptide from the β6 cytoplasmic tail]
binding of GST.ERK2 to shorter test peptides (ERK2): substantially less

RSKAKWQTGTNPLYR (HOMO SAPIENS) [seq. 4, 15 mer fragment of the β6 cytoplasmic domain]
binding of ERK2 to integrin β subunit cytoplasmic domain peptides (ERK2): significant binding
binding of GST.ERK2 to shorter test peptides (ERK2): no reduction in binding
inhibition of cell proliferation (WST-1) [4]: Only the carrier penetratin-peptide complex was effective
inhibition of cell proliferation (WST-1) (HT29 colon cancer cells): Only the carrier penetratin-peptide complex was effective

RSKAKWQTGTNPLYRGSTST (Biotin-RSKAKWQTGTNPLYRGSTST) [fragment 2, N-terminally biotinylated synthetic peptide of the β6 cytoplasmic tail]
binding of non-phosphorylated GST.ERK2 to peptide fragment (ERK2; GST.ERK2 0.25 μg/100 μl, peptide 1 μg/100 μl, FIG. 17): significant binding
binding of non-phosphorylated ERK2 (ERK2): Significant binding

RSRARYEMASNPLYR (HOMO SAPIENS) [β5, peptide corresponding to a region of the β5 cytoplasmic domain]
binding of ERK2 to integrin β subunit cytoplasmic domain peptides (ERK2): also found

β6 cytoplasmic tail peptide: peptide of the cytoplasmic tail domain of the integrin β6 subunit (HDRKEVAKFEAERSKAKWQTGTNPLYRGSTSTFKNVTYKHREKQKVDLSTDS; HOMO SAPIENS)
binding of non-phosphorylated ERK2 (ERK2): Significant binding
binding of JNK-1 (JNK-1): Significant binding
